Experimental data as given in US20090172842.

Target: T1, endogenous tobacco RUBISCO small subunit, P69249
T1 chain: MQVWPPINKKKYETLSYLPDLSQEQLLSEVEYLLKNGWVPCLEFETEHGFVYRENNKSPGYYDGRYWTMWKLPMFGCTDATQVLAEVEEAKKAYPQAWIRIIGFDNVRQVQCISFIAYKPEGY

B1: Griffithsia monilis RUBISCO large subunit with C-terminal 6-His tag, product of the chloroplast transgene cpGMNrbcL (pTCP104 tobacco) (protein)
chain: MANSVEERTRIKNERYESGVIPYAKMGYWDPNYAVKDTDILALFRVSPQPGVDPVEASAAVAGESSTATWTVVWTDLLTACDLYRAKAYKVESVPNTSDQYFAYISYDIDLFEEGSIANLTASIIGNVFGFKAVKALRLEDMRIPVAYLKTFQGPATGIVVERERMDKFGRPFLGATVKPKLGLSGKNYGRVVYEGLRGGLDFLKDDENINSQPFMRWKERFLYSIEAVNRSIAATGEVKGHYMNVTAATMEEMYERAEFAKQLGTVIIMIDLVIGYTAIQTMGIWARKNDMILHLHRAGNSTYSRQKIHGMNFRVICKWMRMAGVDHIHAGTVVGKLEGDPLMIRGFYNTLLLPYLEVNLPQGIFFQQDWASLRKVTPVASGGIHCGQMHQLLDYLGNDVVLQFGGGTIGHPDGIQAGATANRVALESMVIARNEGRDYVAEGPQILRDAAKTCGPLQTALDLWKDITFNYTSTDTADFVETPTANVHHHHHH
RUBISCO Activity (RuBP-dependent 14CO2 fixation), pTCP104-1 tobacco crude extract: 0 mU/mg
RUBISCO Activity (RuBP-dependent 14CO2 fixation), pTCP104-1 tobacco purified rubisco: 2.1 mU/mg
